Measured values: the DeepSol protein solubility set

Assay: soluble on expression in E. coli; label from the status in PepcDB or PDB records

| Sequence | soluble on expression in E. coli |
| --- | --- |
| MKHEIKHDPAFRALTPKWHHGYRFQYEPAQKAHVVLYPEGMIKLNDSASLIGGLIDGERTIAAIIAELQREFPNIPELGMDVDDFMKVAKEKYWIDLV | not soluble |
| MKHHHHHHPMVKEYKTITQIAGPLIFVEKTEPVGYNEIVNIKMGDGTVRRGQVLDSSADIVVVQVFEGTGGLDKDCGVIFTGETLKLPASVDLLGRILSGSGEPRDGGPRIVPDQLLDINGAAMNPYARLPPKDFIQTGISTIDGTNTLVRGQKLPIFSASGLPHNEIALQIARQASVPGSESAFAVVFAAMGITNEEAQYFMSDFEKTGALERAVVFLNLADDPAVERIVTPRMALTAAEYLAYEHGMHVLVILTDITNYAEALRQMGAARNEVPGRRGYPGYMYTDLATLYERAGIVKGAKGSVTQIPILSMPGDDITHPIPDLSGYITEGQIVVARELHRKGIYPPINVLPSLSRLMNSGIGAGKTREDHKAVSDQMYAGYAEGRDLRGLVAIVGKEALSERDTKFLEFADLFEDKFVRQGWNENRTIEDTLEIGWQILTHLPENQLGRIDNKYIQKYHPAHRKAK | soluble |
| MKHSLPDLPYDYGALEPHINAQIMQLHHSKVHAAYVNNLNVTEEKYQEALAKGDVTAQIALQPALKFNGGGHINHSIFWTNLSPNGGGEPKGELLEAIKRDFGSFDKFKEKLTAASVGVQGSGWGWLGFNKERGHLQIAACPNQDPLQGTTGLIPLLGIDVWEHAYYLQYKNVRPDYLKAIWNVINWENVTERYMACKK | soluble |
| MKIAAIYTQSVGPLPDGEIRFENDWSGEIESNVLITGPNGCGKSTLLRAISLLWRAFGHWLGTGTRLNIKDESYTWFYRWDASCAMILDSFSPKSEDQIGLFLGSEAFLVQLKEKYPQVYWLGETVSRTKGTTPETTVFTSSEHFFLPYKNWWSHWSSQYQRLVLKGPSVDMPNLVYLDAEARRWVRPQKDIGSLSPDDSTQAWLATYEVNDNWKGQLESSLFNMKATMPGEYPEMIATLNQFFSGKRIEAEIHPGQRQRVLLDSGNDHSLDALSSGEHQVLIMLFTVQRWLQPGGVVLIDEPDLHLHPSLISPLLASIENIVARKNGQLVMTSHATDIWQRYDNMGLRIDLTDGKDAENGQRLEHHHHHH | soluble |
| MKIAFIGEAVSGFGGMETVISNVIHTFENSSPKINCEMFFFCRNDKMDKAWLKEIKYAQSFSNIKLSFLRRAKHVYNFSQWLKETSPDIVICIDVISCLYANKARKKSGKHFTIFSWPHFSLDHKKHAECITYADYHLAISSGIKEQIMARGISAQDISVVYNPVSIKTVIVPPPERDKPAVFLYVGRLKFEGQKRVKDLFDGLARTTGEWQLHIIGDGSDFEKCQAYSRELGIEQRVIWYGWQSAPWQVVQQKIKNVTALLLTSAFEGFPMTLLEAMSYGIPCISSDCMSGPRDMIKPGLNGELYTPGAIDDFVGHLNRVISGEVKYQHDIIPGTIERFYDVLYFKNFNNAIFSKLQK | not soluble |
| MKIAIFSKLTIKEDEIRKKLGNYDVDIFPPIKRGDLTSEKIFDYDIIGIIDGCFLQSTAVAHREILKVIENNITVFGAGSMGALRASELDTCGMIGVGLVYNLYKNGIISDDDEVAVTFDDNLNQITFSMISFREMIKNALNEKIIDEDDSKRLINSGKELYYPLRTFENVIEKSKISGEKREVLEKFLKNQPDIKRNDAFEMLEEIIKYIEKQ | not soluble |
| MKIAIINMGNNVINFKTVPSSETIYLFKVISEMGLNVDIISLKNGVYTKSFDEVDVNDYDRLIVVNSSINFFGGKPNLAILSAQKFMAKYKSKIYYLFTDIRLPFSQSWPNVKNRPWAYLYTEEELLIKSPIKVISQGINLDIAKAAHKKVDNVIEFEYFPIEQYKIHMNDFQLSKPTKKTLDVIYGGSFRSGQRESKMVEFLFDTGLNIEFFGNAREKQFKNPKYPWTKAPVFTGKIPMNMVSEKNSQAIAALIIGDKNYNDNFITLRVWETMASDAVMLIDEEFDTKHRIINDARFYVNNRAELIDRVNELKHSDVLRKEMLSIQHDILNKTRAKKAEWQDAFKKAIDL | soluble |
| MKIDRLKTDLAKAREKAAEWQARVRDLEKQITEQENLEILQVVRSVAASPEELRGLLDMIRGAKMPMAGTARTFENMDKEEI | not soluble |
| MKIFAVVVTYNRLALLKKVIDLLKRQTRQLDSIVIVNNGSTDGTKEWLEQEKNITLINQSNSGGAGGFETGVKYAYENEADWIWMMDDDVFPNIDCLEKLLGWTSISQCIQPRRYYSDDVEVNFEQWLDPITYSKFGYWQEKSFNNGKKFCAINVGCFEGMFVSKSIVNKIGFPDKRFFIAEDDTIYGFAASFYTNVILVSDAIMVRARRSSDRSVSPMYTYYACRNFHLVYESLNLLLDKKNRFLYIKYIYQFVHQIYLSIFLYDNKMKHLISVFRGFYDCFRKKNGATYLEHHHHHH | not soluble |
| MKIFLENLYHSDCYFLPIRDNQQVLVGVELITHFSSEDGTVRIPTSRVIAQLTEEQHWQLFSEQLELLKSCQHFFIQHKLFAWLNLTPQVATLLLERDNYAGELLKYPFIELLINENYPHLNEGKDNRGLLSLSQVYPLVLGNLGAGNSTMKAVFDGLFTRVMLDKSFIQQQITHRSFEPFIRAIQAQISPCCNCIIAGGIDTAEILAQITPFDFHALQGCLWPAVPINQITTLVQR | not soluble |
| MKIFVCEDDQRQREHMVSIIKNYIMIEEKPMELALATNDPYEVLEQSKELNDIGCYFLDIQLEADMNGIKLASEIRKHDPVGNIIFVTSHSELTYLTFVYKVAAMDFIFKDDPSELKMRIIDCLETAHTRLKLLSKESNVDTIELKRGSNSVYVQYDDIMFFESSTKSHRLIAHLDNRQIEFYGNLKELAQLDERFFRCHNSFVINRHNIESIDSKERIVYFKNGENCFASVRNVKKI | not soluble |
| MKIGIIAAMPEELAYLVQHLDNTQEQVVLGNTYHTGTIASHEVVLVESGIGKVMSAMSVAILADHFQVDALINTGSAGAVAEGIAVGDVVIADKLAYHDVDVTAFGYAYGQMAQQPLYFESDKTFVAQIQESLSQLDQNWHLGLIATGDSFVAGNDKIEAIKSHFPEVLAVEMEGAAIAQAAHTLNLPVLVIRAMSDNANHEANIFFDEFIIEAGRRSAQVLLAFLKALD | soluble |
| MKIISEGETKLMVPEESTLSKKDTVFYNPVMETNRDISVSVVQSFLDDFKRDEFLMCDPLGGSGARGIRYAKELKFNGDLKVSIGDINPSAVKMIKENLKLNELENVEVFHEDANVLLSKNFKVFNVVDLDPFGSPVPYLDSGIRASLTKGGLLCMTATDTAVLCGAYRKTCIRKYNAVPLKGDKELAVRLMIGYAVKMASKYDIGLKPIFSHVTDHYARTFMVTERGAGKADSAIENLGYIRQDSEQKSFKTFEEGSEKGYAGPFYLGEISDKNIVQNALNTAKTRNYSKRAVNILEMISRESEINQVGCFDIHELCSFIKKLVPPVNDIMENLKENGFKVTRVHYNPYGLKTDAELSDLVVLISEYHSKKYLEHHHHHH | not soluble |
| MKILLIEDNQRTQEWVTQGLSEAGYVIDAVSDGRDGLYLALKDDYALIILDIMLPGMDGWQILQTLRTAKQTPVICLTARDSVDDRVRGLDSGANDYLVKPFSFSELLARVRAQLRQHHALNSTLEISGLRMDSVSHSVSRDNISITLTRKEFQLLWLLASRAGEIIPRTVIASEIWGINFDSDTNTVDVAIRRLRAKVDDPFPEKLIATIRGMGYSFVAVKK | soluble |
| MKINRHILDNGLRLVHSQDESTQMVALNVLYNVGARDEHPEHTGFAHLFEHLMFGGSVNIPDYDMPLQLAGGENNAWTNNDITNYYLTVPRQNVETGFWLESDRMLSLDFSERSLEVQRGVVMEEFKQRCLNQPYGDVGHLLRPLAYRAHTYQWPTIGKDLSHIANATLEEVKAFFFRFYAPNNAVLAVTGNISFEEAVALTEKWFGPIPRREVPQRNLPQEPEQTEERRLTVERNVPLDSLFMAYHMCSHDHPDYYAFDILSDLLSNGRSSRLNQRLVQQKQLFSSIDAYISGSVDAGLFHISGKPAAGVSLEQAEAAVREELERLQQEPVDEQELEKVKNKFESTQIFGNINYLNVATNLAWFELLGRAEDMEKEVERYRAVTAGQLQKVAQSAFRKENGVILYYKKQIS | not soluble |
| MKIPDLTNYEHLIGGLCGGVTSTVVCHPFDLLKIRFSANEGSSLRPQYSSYADAVRKIVRVEGVRGLYQGWTPSLIGASLSWGLYFQWYNSLRTKIYENFSTGSKLANNLISGCISGSAIMCITNPIWLTKTRLCLQYENQQSKKYAGMMDCLKKTVKQEGFFGLYRGFVTGVIGTTHGAVQIAAYSWIIDKRCQSQGLPKDSFLSQTDYVIASSTSKVLATTITFPYQVLRTRMQDHNTDSRGVWKTTLKTIHNEGIGGLWKGCLIANVRQLPAAVVTFLTYENVKRLVGMTKQI | not soluble |
| MKIRQEKPAEYQAVERLTYQAFKELNLTENWRPTEHFIVHLLRESADFIPELSLVSETDQGKLTGHIMSSKAKLRLPDHTEKAVLTVGPLSVHPEAQNTGVGSALIKHSVQKAKELGIGGLIILGHPTYYTKFGFVPATTFQITLPEKETSEALLALELLPGYFGTSGGEWHFSTCFAYPETHPAELEAFEAELGINE | not soluble |
| MKITDLRCAVIGKHPIVRIVTDEGLHGLGEVEFTKTYLKPFVLHFREALIGEDPTDVERVMLKIRQRGSFKPYGAAVSAIEHALWDIAGKAAGVPVYKLLGGKVRDKVRVYNGSIRRKRAGDRPEDYAADVKWMMEQPQNFFMVKQGISFHSNMKDSIEGFHYGVTQKKAGYHGAMDQGVISERGFNHMLDCVIAMKEVLGDKVSLALDCGPGWMLPDAIKFARAVEKYNLMWLEDMLTGDYVPWVNPQAYRELTTSTSTPIHTGEQIYLRHNFKELIETQAVRVIGPDPADIGGIAELKWVAEHAYMHSILMAPHGTANGLLGLGALINVCATLPANYVAFEYPSASDPWWEDLVIGLPAQIVRDSMVDLLEAPGLGLDIDAEAARKYLGEEDAGFFD | not soluble |
| MKITKISLFQKVLPYCSGSLAIGDLSENRTKPFDTFTSSVVVINTDQGVSGVGESCPWVSDNLNEKEVYDCLASRLLGEDPHNLKGIVKNMDAVIQGHTFAKSAIDMACWDIKAKDNGVPLFELLGGMLTDGAPLYRCVMEQEHDKIKAEVEQYRASGYKYFKLRVGIEPDKDIELIKFAANLAEPGEIVYADANCRWTLSEALEVVKAIEGLDVMIEQPCLSYEDCIKVRENTGLLIKLDELVTDLTMAKKIVRDHTADVVCIKMSRVGGLSKALEIRDFFVKKGIKVVTECMMGGEIVSAAVSHFSASTPSEFLFNTGDLHAYVTASTGNISPPTLNGRIYCNDSPGLGVEPDLTSLGTPIAIYQN | soluble |
| MKIVDVLCTPGLTGFYFDDQRAIKKGAGHDGFTYTGSTVTEGFTQVRQKGESISVLLVLEDGQVAHGDCAAVQYSGAGGRDPLFLAKDFIPVIEKEIAPKLIGREITNFKPMAEEFDKMTVNGNRLHTAIRYGITQAILDAVAKTRKVTMAEVIRDEYNPGAEINAVPVFAQSGDDRYDNVDKMIIKEADVLPHALINNVEEKLGLKGEKLLEYVKWLRDRIIKLRVREDYAPIFHIDVYGTIGAAFDVDIKAMADYIQTLAEAAKPFHLRIEGPMDVEDRQKQMEAMRDLRAELDGRGVDAELVADEWCNTVEDVKFFTDNKAGHMVQIKTPDLGGVNNIADAIMYCKANGMGAYCGGTCNETNRSAEVTTNIGMACGARQVLAKPGMGVDEGMMIVKNEMNRVLALVGRRK | soluble |
| MKIWSKEEVVNKLHEIKNKGYLSVPTDMFRTDDGVVGQILERQFGVQENNITLGDLGEFELKGMRNRKAKSNLTLFHKKPVAGQTVIQIFNRFGYVKPSSRNPEVMKKKLFTTIKGGRLNNLGLTLNAKHASEINLYYQDEYLSTWDLNLSKIEKLVLVFAETIGRANSPEEQFHFTKAYMLTEINDITSLINDGVLVMDLCIDQDLSKSKGPHDRGPHLRIPISKLDKLYRNIERLL | soluble |
